Laboratory results from publication PMC11341715, “Structural insights into Frizzled3 through nanobody modulators” (Nature Communications, 2024).

Key:
Details in all cases: both partners purified
[1] = target: T1, biotinylated FZD6 (C-terminally truncated transmembrane construct, in detergent) (Homo sapiens, UniProt O60353, biotin (in vivo biotinylation of the Avi tag)); experiment: BLI; Octet Red 96e; biotinylated multidomain FZD3 or FZD6 in detergent immobilised, nanobody or DEP in solution; 10 mM HEPES pH 7.5, 150 mM NaCl, 0.02% Tween 20, 0.005% GDN; 1:1 binding model
T1 construct: Frizzled-6 (FZD6), C-terminally truncated transmembrane construct; the methods say C-terminal truncated, without limits; also called full length FZD6; source: HEK293T with biotin ligase, transfected, biotinylated in vivo, in detergent; not shown: Avi3, C-terminal, kept
T1 sequence (O60353 19-706): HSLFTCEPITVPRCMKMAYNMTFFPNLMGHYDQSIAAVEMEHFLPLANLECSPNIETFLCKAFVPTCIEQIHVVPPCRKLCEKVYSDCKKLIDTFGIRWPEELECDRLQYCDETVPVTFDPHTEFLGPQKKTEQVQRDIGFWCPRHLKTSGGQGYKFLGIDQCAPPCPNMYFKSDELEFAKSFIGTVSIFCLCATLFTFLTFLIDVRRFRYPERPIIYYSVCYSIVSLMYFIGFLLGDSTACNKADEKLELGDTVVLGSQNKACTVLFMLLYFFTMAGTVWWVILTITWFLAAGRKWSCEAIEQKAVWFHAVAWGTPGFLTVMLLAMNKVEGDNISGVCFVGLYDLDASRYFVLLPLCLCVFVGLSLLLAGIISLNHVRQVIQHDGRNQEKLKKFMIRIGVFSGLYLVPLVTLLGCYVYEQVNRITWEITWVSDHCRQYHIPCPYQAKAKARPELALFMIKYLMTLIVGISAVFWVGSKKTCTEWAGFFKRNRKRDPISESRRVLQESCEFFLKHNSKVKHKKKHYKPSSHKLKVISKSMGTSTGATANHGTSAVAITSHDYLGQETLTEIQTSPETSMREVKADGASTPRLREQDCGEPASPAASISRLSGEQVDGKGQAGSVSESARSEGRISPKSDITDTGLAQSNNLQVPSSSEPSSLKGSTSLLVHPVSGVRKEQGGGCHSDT

[2] = target: T2, biotinylated multidomain FZD3 (C-terminally truncated, in detergent) (human, UniProt Q9NPG1, biotin (in vivo biotinylation of the Avi tag)); experiment: as above
T2 construct: human Frizzled-3 (FZD3), UniProt Q9NPG1; C-terminally truncated construct (CRD, linker and transmembrane domain); residues 26-517 are stated for the multidomain production construct, not expressly for the Avi-tagged one; The results call it 'full-length FZD3'; the methods say the biotinylated transmembrane constructs were C-terminally truncated; Functional assays in cells used wild type FZD3 …

[3] = target: T3, biotinylated FZD3 cysteine-rich domain (CRD) (human, UniProt Q9NPG1, biotin (in vivo biotinylation of the Avi tag)); experiment: BLI; Octet Red 96e; biotinylated FZD3 or FZD6 CRD immobilised, Nb8 or Wnt5a in solution; 10 mM HEPES pH 7.5, 150 mM NaCl, 0.02% Tween 20, 0.005% GDN; 1:1 binding model
T3 construct: human Frizzled-3 (FZD3), UniProt Q9NPG1, cysteine-rich domain; residues 26-138 are stated for the FZD3 CRD production construct, not expressly for the Avi-tagged one; The limits 26-138 are told for the Twin-Strep construct; also called FZD3 CRD; Frizzled3 CRD; source: HEK293T constitutively expressing ER-localised biotin ligase, transfected, biotinylated in vivo; not shown: Avi3, C-terminal, kept

[4] = target: T4, biotinylated FZD8 cysteine-rich domain (CRD) (Homo sapiens, UniProt Q9H461, biotin (in vivo biotinylation of the Avi tag)); experiment: BLI; BLItz System; initial qualitative test of the 10 biotinylated human FZD CRDs binding to Nb8
T4 construct: human Frizzled-8 (FZD8) cysteine-rich domain; One of 'all 10 human Frizzled CRDs'; also called FZD8 CRD; source: HEK293T constitutively expressing ER-localised biotin ligase, transfected, biotinylated in vivo; not shown: Avi3, C-terminal, kept
T4 sequence (Q9H461 whole entry, looked up, the tested form may be a part): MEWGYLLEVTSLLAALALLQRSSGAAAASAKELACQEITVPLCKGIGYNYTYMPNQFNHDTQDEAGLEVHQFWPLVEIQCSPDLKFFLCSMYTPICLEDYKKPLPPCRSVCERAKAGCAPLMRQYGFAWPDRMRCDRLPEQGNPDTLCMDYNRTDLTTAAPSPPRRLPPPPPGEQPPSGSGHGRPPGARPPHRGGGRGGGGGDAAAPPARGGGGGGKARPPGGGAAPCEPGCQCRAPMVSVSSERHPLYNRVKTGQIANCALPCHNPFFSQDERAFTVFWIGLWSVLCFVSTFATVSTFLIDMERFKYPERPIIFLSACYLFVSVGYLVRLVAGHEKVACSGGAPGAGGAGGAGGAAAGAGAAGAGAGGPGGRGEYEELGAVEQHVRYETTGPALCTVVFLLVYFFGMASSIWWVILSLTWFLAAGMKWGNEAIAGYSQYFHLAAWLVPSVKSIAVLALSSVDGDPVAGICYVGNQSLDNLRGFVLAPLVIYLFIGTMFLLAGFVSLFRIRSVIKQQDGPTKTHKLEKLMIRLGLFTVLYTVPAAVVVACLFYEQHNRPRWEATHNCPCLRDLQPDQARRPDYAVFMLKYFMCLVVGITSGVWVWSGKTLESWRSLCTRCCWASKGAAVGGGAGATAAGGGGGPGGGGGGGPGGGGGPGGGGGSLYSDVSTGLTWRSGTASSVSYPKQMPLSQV

[5] = target: T5, biotinylated FZD5 cysteine-rich domain (CRD) (Homo sapiens, UniProt Q13467, biotin (in vivo biotinylation of the Avi tag)); experiment: as above
T5 construct: human Frizzled-5 (FZD5) cysteine-rich domain; One of 'all 10 human Frizzled CRDs'; also called FZD5 CRD; source: HEK293T constitutively expressing ER-localised biotin ligase, transfected, biotinylated in vivo; not shown: Avi3, C-terminal, kept
T5 sequence (Q13467 whole entry, looked up, the tested form may be a part): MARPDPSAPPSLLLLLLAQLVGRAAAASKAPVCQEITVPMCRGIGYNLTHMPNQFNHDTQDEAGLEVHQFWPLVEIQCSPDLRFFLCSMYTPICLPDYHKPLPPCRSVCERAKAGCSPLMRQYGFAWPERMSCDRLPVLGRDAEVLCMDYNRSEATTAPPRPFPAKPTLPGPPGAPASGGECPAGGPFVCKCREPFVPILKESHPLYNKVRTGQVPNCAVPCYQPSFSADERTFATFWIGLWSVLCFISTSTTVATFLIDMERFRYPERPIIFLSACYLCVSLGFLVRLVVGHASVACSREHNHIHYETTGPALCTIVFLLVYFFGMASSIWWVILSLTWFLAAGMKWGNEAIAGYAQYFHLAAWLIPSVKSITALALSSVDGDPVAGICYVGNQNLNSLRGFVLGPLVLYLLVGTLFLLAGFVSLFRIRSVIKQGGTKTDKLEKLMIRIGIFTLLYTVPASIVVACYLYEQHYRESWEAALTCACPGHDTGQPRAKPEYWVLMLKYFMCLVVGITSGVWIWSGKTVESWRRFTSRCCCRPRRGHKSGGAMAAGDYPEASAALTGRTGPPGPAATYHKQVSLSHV

[6] = target: T6, biotinylated FZD9 cysteine-rich domain (CRD) (Homo sapiens, UniProt O00144, biotin (in vivo biotinylation of the Avi tag)); experiment: as above
T6 construct: human Frizzled-9 (FZD9) cysteine-rich domain; One of 'all 10 human Frizzled CRDs'; also called FZD9 CRD; source: HEK293T constitutively expressing ER-localised biotin ligase, transfected, biotinylated in vivo; not shown: Avi3, C-terminal, kept
T6 sequence (O00144 whole entry, looked up, the tested form may be a part): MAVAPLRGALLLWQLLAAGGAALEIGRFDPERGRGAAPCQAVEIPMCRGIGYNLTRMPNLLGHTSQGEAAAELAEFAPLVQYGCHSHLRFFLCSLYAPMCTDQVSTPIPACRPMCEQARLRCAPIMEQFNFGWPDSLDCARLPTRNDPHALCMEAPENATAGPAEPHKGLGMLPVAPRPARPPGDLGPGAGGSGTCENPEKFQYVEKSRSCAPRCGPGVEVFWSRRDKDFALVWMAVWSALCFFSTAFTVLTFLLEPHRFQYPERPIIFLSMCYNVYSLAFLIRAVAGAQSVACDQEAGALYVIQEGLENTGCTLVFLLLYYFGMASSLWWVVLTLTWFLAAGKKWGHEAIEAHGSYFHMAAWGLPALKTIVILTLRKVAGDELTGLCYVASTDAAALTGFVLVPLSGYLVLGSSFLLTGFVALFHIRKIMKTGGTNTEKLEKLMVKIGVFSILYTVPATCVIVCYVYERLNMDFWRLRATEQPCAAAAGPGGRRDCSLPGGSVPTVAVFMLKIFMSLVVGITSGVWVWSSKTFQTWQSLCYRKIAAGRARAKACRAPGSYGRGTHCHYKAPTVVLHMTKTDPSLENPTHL

[7] = target: T7, biotinylated FZD7 cysteine-rich domain (CRD) (Homo sapiens, UniProt O75084, biotin (in vivo biotinylation of the Avi tag)); experiment: as above
T7 construct: human Frizzled-7 (FZD7) cysteine-rich domain; One of 'all 10 human Frizzled CRDs'; also called FZD7 CRD; source: HEK293T constitutively expressing ER-localised biotin ligase, transfected, biotinylated in vivo; not shown: Avi3, C-terminal, kept

[8] = target: T8, biotinylated FZD10 cysteine-rich domain (CRD) (Homo sapiens, UniProt Q9ULW2, biotin (in vivo biotinylation of the Avi tag)); experiment: as above
T8 construct: human Frizzled-10 (FZD10) cysteine-rich domain; One of 'all 10 human Frizzled CRDs'; also called FZD10 CRD; source: HEK293T constitutively expressing ER-localised biotin ligase, transfected, biotinylated in vivo; not shown: Avi3, C-terminal, kept
T8 sequence (Q9ULW2 whole entry, looked up, the tested form may be a part): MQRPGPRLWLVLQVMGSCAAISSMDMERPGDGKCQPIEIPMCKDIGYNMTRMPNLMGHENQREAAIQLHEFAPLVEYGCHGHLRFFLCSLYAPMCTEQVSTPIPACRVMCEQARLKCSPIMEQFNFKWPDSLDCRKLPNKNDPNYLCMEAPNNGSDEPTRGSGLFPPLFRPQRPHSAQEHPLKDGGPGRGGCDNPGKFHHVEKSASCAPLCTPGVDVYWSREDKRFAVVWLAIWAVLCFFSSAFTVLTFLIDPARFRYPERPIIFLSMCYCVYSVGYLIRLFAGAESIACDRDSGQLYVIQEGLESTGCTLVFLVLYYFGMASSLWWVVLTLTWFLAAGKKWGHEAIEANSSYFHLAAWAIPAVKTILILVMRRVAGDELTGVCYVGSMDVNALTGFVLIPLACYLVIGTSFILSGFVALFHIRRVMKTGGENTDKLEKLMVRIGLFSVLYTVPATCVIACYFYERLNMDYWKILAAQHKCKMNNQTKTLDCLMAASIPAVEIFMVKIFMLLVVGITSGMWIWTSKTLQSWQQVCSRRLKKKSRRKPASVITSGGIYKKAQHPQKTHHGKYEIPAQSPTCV

[9] = target: T9, biotinylated FZD2 cysteine-rich domain (CRD) (Homo sapiens, UniProt Q14332, biotin (in vivo biotinylation of the Avi tag)); experiment: as above
T9 construct: human Frizzled-2 (FZD2) cysteine-rich domain; One of 'all 10 human Frizzled CRDs'; also called FZD2 CRD; source: HEK293T constitutively expressing ER-localised biotin ligase, transfected, biotinylated in vivo; not shown: Avi3, C-terminal, kept
T9 sequence (Q14332 whole entry, looked up, the tested form may be a part): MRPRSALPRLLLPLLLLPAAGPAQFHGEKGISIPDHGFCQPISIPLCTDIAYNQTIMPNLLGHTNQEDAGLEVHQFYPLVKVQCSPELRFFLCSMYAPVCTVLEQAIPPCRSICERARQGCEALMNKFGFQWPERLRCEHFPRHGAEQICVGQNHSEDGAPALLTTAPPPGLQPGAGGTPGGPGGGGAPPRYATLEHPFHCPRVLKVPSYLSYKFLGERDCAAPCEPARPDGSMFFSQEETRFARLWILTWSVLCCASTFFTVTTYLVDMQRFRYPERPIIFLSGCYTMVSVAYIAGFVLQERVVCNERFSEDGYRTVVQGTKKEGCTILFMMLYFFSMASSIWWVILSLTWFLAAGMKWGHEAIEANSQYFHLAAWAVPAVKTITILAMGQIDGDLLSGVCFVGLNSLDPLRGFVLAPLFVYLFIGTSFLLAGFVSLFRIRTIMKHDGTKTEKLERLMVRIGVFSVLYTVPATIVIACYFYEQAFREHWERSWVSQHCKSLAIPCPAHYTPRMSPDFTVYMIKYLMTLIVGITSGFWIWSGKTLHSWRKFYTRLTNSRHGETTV

[10] = target: T10, biotinylated FZD1 cysteine-rich domain (CRD) (Homo sapiens, UniProt Q9UP38, biotin (in vivo biotinylation of the Avi tag)); experiment: as above
T10 construct: human Frizzled-1 (FZD1) cysteine-rich domain; One of 'all 10 human Frizzled CRDs'; also called FZD1 CRD; source: HEK293T constitutively expressing ER-localised biotin ligase, transfected, biotinylated in vivo; not shown: Avi3, C-terminal, kept
T10 sequence (Q9UP38 whole entry, looked up, the tested form may be a part): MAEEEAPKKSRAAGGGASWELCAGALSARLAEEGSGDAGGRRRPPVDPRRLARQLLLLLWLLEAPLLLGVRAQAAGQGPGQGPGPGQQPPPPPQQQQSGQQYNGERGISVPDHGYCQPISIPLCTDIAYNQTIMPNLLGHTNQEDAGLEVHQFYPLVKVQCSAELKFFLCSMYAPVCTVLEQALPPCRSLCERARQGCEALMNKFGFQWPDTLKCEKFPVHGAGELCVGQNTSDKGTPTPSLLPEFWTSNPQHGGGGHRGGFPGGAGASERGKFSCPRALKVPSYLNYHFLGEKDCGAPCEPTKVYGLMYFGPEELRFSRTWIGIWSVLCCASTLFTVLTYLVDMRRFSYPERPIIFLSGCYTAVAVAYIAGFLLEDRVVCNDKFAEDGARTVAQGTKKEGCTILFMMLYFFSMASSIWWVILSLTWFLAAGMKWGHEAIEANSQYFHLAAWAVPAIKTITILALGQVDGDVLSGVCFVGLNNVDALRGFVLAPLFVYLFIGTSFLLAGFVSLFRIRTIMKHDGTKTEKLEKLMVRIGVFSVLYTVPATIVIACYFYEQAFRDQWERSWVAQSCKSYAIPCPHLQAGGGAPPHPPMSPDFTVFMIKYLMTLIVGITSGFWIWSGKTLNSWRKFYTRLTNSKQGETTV

[11] = target: T11, biotinylated FZD4 cysteine-rich domain (CRD) (Homo sapiens, UniProt Q9ULV1, biotin (in vivo biotinylation of the Avi tag)); experiment: as above
T11 construct: human Frizzled-4 (FZD4) cysteine-rich domain; One of 'all 10 human Frizzled CRDs'; also called FZD4 CRD; source: HEK293T constitutively expressing ER-localised biotin ligase, transfected, biotinylated in vivo; not shown: Avi3, C-terminal, kept
T11 sequence (Q9ULV1 whole entry, looked up, the tested form may be a part): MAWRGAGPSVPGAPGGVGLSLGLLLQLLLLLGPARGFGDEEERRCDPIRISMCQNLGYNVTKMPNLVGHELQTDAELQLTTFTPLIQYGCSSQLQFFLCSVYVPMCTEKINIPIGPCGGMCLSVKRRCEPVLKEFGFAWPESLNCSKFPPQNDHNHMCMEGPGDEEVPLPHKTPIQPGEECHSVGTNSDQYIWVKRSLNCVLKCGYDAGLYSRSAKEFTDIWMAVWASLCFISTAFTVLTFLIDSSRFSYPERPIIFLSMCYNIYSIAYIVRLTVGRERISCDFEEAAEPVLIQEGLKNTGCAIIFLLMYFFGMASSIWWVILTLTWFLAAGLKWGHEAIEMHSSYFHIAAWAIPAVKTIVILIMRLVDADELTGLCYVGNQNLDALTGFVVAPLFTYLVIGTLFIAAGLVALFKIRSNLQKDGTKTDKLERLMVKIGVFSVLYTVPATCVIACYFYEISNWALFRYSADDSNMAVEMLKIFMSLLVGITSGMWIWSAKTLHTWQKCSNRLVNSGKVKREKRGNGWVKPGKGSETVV

B1: Nb9 (VHH)
VHH: QVQLVESGGGLVQAGGSLRLSCTASGRIFNLDVMGWYRQAPGKRRELVADITSGGKINYADSVKGRFTISRDNTKDTVYLQMNSLKPEDTAVYYCNAEVEWLDMDYWGKGTQVTVSS
notes: most of the chain also in PDB 8QW4 (as the megabody); also called nanobody 9; family 3
Work on B1 yielded a Kd [1] of 410 ± 41 nM and a Kd [2] of 32 ± 2.8 nM.

B2: Nb8 (VHH)
VHH: QVQLVESGGGLVQAGGSLRLSCAASGSISSINAMGWYRQAPGKQRELVAAITSGGSTNYADSVKGRFTISRDNAKNTVYLQMNSLKPGDTAVYYCNLLYYIDYVEYDYWGQGTQVTVSS
notes: also in PDB 8Q7O; residues 1-119 are named for the Nb8 module of the surrogate; Untagged in the crystallisation sample; also called nanobody 8; family 2; source: co-expressed untagged with FZD3 CRD in HEK293S GnTI- cells (for crystallisation)
In the case of B2, the Kd [3] is reported as 19.2 ± 1.2 nM, the binding result [4] is reported as “no binding” and the binding result [5] is reported as “no binding”. B2: no binding [6]; no binding [7]; no binding [8]. B2: no binding [9]; no binding [10]; no binding [11].

B3: Nb1 (VHH)
VHH: QVQLVESGGGLVQAGGSLRLSCAASGNIFSINAMGWYRQAAGKQRELVAAITSGGSTNYADSVKGRFTISRDNAKNTVYLQMNSLKPEDTAVYYCNADEWALGEHWGQGTQVTVSS
notes: also called nanobody 1; family 1 (Nb1, 3-6)
B3: binds [2].
